The source of these data is patent US20250026852A1 (Chugai, published 2025).

The target of assay [1] is T1, human CD3ed-Fc (human).
T1 construct: Biotinylated in culture by BirA; also called biotin-labeled protein containing human CD3 epsilon and human CD3 delta linked to a human antibody constant region; CD3 heterodimer fused with the antibody constant region
T1 chain 1: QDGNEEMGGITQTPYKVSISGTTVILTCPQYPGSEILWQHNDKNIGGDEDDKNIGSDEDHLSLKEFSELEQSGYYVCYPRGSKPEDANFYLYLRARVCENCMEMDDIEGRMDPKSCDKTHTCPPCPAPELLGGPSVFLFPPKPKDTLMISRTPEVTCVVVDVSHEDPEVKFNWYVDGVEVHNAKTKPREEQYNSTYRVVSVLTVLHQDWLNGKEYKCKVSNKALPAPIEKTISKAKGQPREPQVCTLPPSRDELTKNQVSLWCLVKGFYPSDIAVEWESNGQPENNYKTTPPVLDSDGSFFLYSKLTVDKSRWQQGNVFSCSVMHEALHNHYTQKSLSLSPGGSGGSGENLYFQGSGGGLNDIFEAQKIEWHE
T1 chain 2: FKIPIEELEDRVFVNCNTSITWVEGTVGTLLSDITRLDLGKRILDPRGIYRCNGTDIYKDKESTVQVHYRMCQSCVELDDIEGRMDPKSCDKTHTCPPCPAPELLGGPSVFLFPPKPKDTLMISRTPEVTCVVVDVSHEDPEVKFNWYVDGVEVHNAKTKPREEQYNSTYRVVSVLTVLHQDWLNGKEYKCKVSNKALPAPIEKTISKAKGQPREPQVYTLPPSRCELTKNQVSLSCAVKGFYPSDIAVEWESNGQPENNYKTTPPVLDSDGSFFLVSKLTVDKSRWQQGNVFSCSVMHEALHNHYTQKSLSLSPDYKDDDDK
As to the kind of experiment: phage display: ELISA / panning of the immunized-alpaca VHH library (Example 5-1 or 5-2).

In assay [2] the target is T1, human CD3ed-Fc. Description: BLI (Octet RED), human CD3ed-Fc on the sensor, protease-treated molecule as analyte. As for the experimental part: The protease concentration was set to 25 nM, and Octet RED (Pall ForteBio Corp.) was used in the assay.
Next, the CD3 binding evaluation of VHH released by protease treatment was conducted in the same way as in Example 3.
In general terms: Biolayer interferometry detects binding as a change in optical thickness at a sensor tip.

A further assay concerns the target T2, 20A11-G1m/VK2-28-k0MT.
T2 construct: IgG antibody-like molecule; VHH 20A11 in place of VH
Description: BLI (Octet), in the same way as in Example 3.

The next assay has as its target T3, 20A11hu-G1m/VK2-28-k0MT (Homo sapiens (Human), UniProt P0DOX5 2-447 = IgG part).
T3 construct: IgG antibody-like molecule; VHH 20A11hu in place of VH
As to the kind of experiment: BLI (Octet), in the same way as in Example 3, 30 C or 25 C. The procedure:
Next, the IL-6R binding evaluation of VHH released by protease treatment was conducted at 30° C. or 25° C. in the same way as in Example 3.

For another assay, the target named is T4, IL6R90-G1m/VK2-28-k0MT.
T4 construct: IgG antibody-like molecule; VHH IL6R90 in place of VH
T4 sequence (light, as listed by the source, chain 2 of 2, other chains not shown): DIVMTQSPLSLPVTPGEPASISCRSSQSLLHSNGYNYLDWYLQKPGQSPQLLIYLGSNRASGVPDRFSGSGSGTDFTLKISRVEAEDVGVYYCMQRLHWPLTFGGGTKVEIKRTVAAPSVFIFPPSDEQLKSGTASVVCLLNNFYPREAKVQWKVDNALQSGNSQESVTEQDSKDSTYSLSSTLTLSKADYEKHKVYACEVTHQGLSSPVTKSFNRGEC
Description: BLI (Octet HTX), molecule captured on Protein A biosensor, hsIL-6R as analyte, 30 C. As for the experimental part: (§1) The hsIL-6R binding evaluation of each molecule was conducted using Octet HTX (Pall ForteBio Corp.). Specifically, each molecule was allowed to bind to Biosensor/Protein A (ProA) (Pall ForteBio Corp., 18-5013), and hsIL-6R was allowed to act thereon, followed by binding evaluation at 30° C.

The target in another assay is T5, IL6R90-G1m/lamL (Homo sapiens (Human), UniProt P0DOY2 1-106).
T5 construct: IgG antibody-like molecule; VHH IL6R90 in place of VH
The description is as above. The procedure: as §1

T2 sequence (heavy, as listed by the source, chain 1 of 2): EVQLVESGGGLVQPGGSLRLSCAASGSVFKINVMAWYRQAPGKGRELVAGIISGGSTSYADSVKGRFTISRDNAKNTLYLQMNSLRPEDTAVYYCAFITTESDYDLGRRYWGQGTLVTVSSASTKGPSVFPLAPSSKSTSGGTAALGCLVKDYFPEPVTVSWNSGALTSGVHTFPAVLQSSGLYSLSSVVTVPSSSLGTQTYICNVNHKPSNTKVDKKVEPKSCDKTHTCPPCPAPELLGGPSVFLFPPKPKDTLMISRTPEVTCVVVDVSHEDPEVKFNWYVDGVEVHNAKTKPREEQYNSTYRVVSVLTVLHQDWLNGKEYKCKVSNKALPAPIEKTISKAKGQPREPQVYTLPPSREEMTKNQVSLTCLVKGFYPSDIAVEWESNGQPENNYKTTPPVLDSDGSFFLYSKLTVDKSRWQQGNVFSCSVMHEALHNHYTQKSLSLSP
T2 sequence (light, as listed by the source, chain 2 of 2): as the sequence (light, as listed by the source, chain 2 of 2, other chains not shown) above
T3 sequence (P0DOX5 other isoform, or with tags, fused parts or gaps, chain 1 of 2): as the sequence (heavy, as listed by the source, chain 1 of 2) above, with Y37V, R45L, L47W counted along it
T3 sequence (light, as listed by the source, chain 2 of 2): as the sequence (light, as listed by the source, chain 2 of 2, other chains not shown) above

B1: bC3edL1R1N164H01 (VHH)
VHH: QVQLVESGGGLVQPGGSLRLSCAASGFTFDVYGMSWVRHSPGKGLEWVSTINWNGGSTYYAESMKGRFTISRDNAKNTVYLQMNSLKPEDTAVYYCAKFAPWDGDMEWGQGTQVTVSG
With B1, in the assay with human CD3ed-Fc [1], the binding result is recorded as “binds”.

B2: bC3edL1R1N164H01-G1mISHI01/VK1-39-k0MT after protease (MT-SP1) treatment (VHH)
VHH: QVQLVESGGGLVQPGGSLRLSCAASGFTFDVYGMSWVRHSPGKGLEWVSTINWNGGSTYYAESMKGRFTISRDNAKNTVYLQMNSLKPEDTAVYYCAKFAPWDGDMEWGQGTQVTVSG
notes: also called released VHH; not shown: residues of the protease cleavage site left at the C terminus
As for B2, the binding result with human CD3ed-Fc [2] is listed as “binds”.

B3: soluble human IL-6R (receptor)
chain: LAPRRCPAQEVARGVLTSLPGDSVTLTCPGVEPEDNATVHWVLRKPAAGSHPSRWAGMGRRLLLRSVQLHDSGNYSCYRAGRPAGTVHLLVDVPPEEPQLSCFRKSPLSNVVCEWGPRSTPSLTTKAVLLVRKFQNSPAEDFQEPCQYSQESQKFSCQLAVPEGDSSFYIVSMCVASSVGSKFSKTQTFQGCGILQPDPPANITVTAVARNPRWLSVTWQDPHSWNSSFYRLRFELRYRAERSKTFTTWMVKDLQHHCVIHDAWSGLRHVVQLRAQEEFGQGEWSEWSPEAMGTPWTESRSPPAENEVSTPMQALTTNKDDDNILFRDSANATSLPVQ
notes: also called hsIL-6R; recombinant human IL-6R
As to B3, the binding result in the assay with 20A11-G1m/VK2-28-k0MT is listed as “binds”; with 20A11hu-G1m/VK2-28-k0MT it was “no binding”; in the assay with IL6R90-G1m/VK2-28-k0MT, “no binding”; with IL6R90-G1m/lamL it was “binds”.

B4: bC3edL1R1N160H01 (VHH)
VHH: QVQLVESGGGLVQPGGSLRLSCAASGFTFNHCWMYWVRQAPGKGLEWVSVINTDGGSAYYADSVKGRFTISRDNAKNTLYLQMNSLKSEDTAVYYCARDWAPLVDYYYGMDYWGKGTLVTVSG
With B4, the binding result with human CD3ed-Fc [1] was “binds”.

B5: bC3edL1R1N160H01-G1mISHI01/VK1-39-k0MT after protease (MT-SP1) treatment (VHH)
VHH: QVQLVESGGGLVQPGGSLRLSCAASGFTFNHCWMYWVRQAPGKGLEWVSVINTDGGSAYYADSVKGRFTISRDNAKNTLYLQMNSLKSEDTAVYYCARDWAPLVDYYYGMDYWGKGTLVTVSG
notes: as for B2
B5: in the assay with human CD3ed-Fc [2], the binding result is on record as “binds”.

B6: bC3edL1R1N161H01 (VHH)
VHH: QVQLVESGGGLVQPGGSLRLSCAASGFPFDNYVMSWVRQAPGKGLEWISAISWNGGSTYYAESMKGRFTISRDNAKSTLYLQMNSLKSEDTAVYYCAKEPRVYYSGSPDYWGQGTQVTVSG
B6: in the assay with human CD3ed-Fc [1], the binding result is listed as “binds”.

B7: bC3edL1R1N161H01-G1mISHI01/VK1-39-k0MT after protease (MT-SP1) treatment (VHH)
VHH: QVQLVESGGGLVQPGGSLRLSCAASGFPFDNYVMSWVRQAPGKGLEWISAISWNGGSTYYAESMKGRFTISRDNAKSTLYLQMNSLKSEDTAVYYCAKEPRVYYSGSPDYWGQGTQVTVSG
notes: as for B2
On to B7, for which, in the assay with human CD3ed-Fc [2], the binding result was “binds”.
